PMC7076939

What was measured:
[1] = tested on: ATTO-MBD2 (MBD2FLsc labeled with ATTO 565) (human); experiment: nanochannel single-molecule fluorescence; conditions: Anisotropy: 20 mM HEPES, 50 mM NaCl, 3 mM MgCl2, 3 mM EDTA, pH 7.5, 24 nM DNA, temperature not given, AFM: 20 mM HEPES, 10 mM Mg(OAc)2, 100 mM NaCl
[2] = tested on: ATTO-MBD2 (MBD2FLsc labeled with ATTO 565) (human); experiment: fluorescence anisotropy; conditions: 24 nM DNA, text rounds to 25±5, 5-methylcytosine at one CpG, Anisotropy: 20 mM HEPES, 50 mM NaCl, 3 mM MgCl2, 3 mM EDTA, pH 7.5, 24 nM DNA, temperature not given, AFM: 20 mM HEPES, 10 mM Mg(OAc)2, 100 mM NaCl
[3] = tested on: MBD2FLsc (single-chain MBD2 with scMBD2-GATAD2A), unlabeled (human); experiment: fluorescence anisotropy; conditions: 24 nM DNA, text rounds to 12±4, 5-methylcytosine at one CpG, Anisotropy: 20 mM HEPES, 50 mM NaCl, 3 mM MgCl2, 3 mM EDTA, pH 7.5, 24 nM DNA, temperature not given, AFM: 20 mM HEPES, 10 mM Mg(OAc)2, 100 mM NaCl
MeCP2 (human) = experiment: fluorescence anisotropy; conditions: 24 nM DNA, text gives error 4.4, 5-methylcytosine at one CpG, Anisotropy: 20 mM HEPES, 50 mM NaCl, 3 mM MgCl2, 3 mM EDTA, pH 7.5, 24 nM DNA, temperature not given, AFM: 20 mM HEPES, 10 mM Mg(OAc)2, 100 mM NaCl

## unmethylated lambda DNA
[1]
  binding signal (fraction of methylated): 0.1

## methylated lambda DNA
[1]; CpG 5-methylcytosine
  binding signal (fold bound vs unmethylated): 10

## FAM-labeled dsDNA with one methylated CpG
[2]
  Kd: 24.5 nM
[3]
  Kd: 11.9 nM
MeCP2 (human)
  Kd: 7.5 nM
